# From the nanobody polyreactivity screen of Harvey et al. (2022)
# Experiment: yeast display, Sf9 membrane polyspecificity reagent, FACS + sequencing; frameworks hold sequencing errors
# Outline: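 Using colony PCR, genes from sorted yeast display clones were amplified, then sequenced on MiSeq at 2 × 250 and filtered by CDR length. The clones had been stained with 10% biotinylated, detergent-solubilized Sf9 membrane reagent for 1 hour at 4 °C and sorted by FACS into low and high (top ~1%) gates on anti-HA and streptavidin fluorescence. Polyreactivity labels come from the gate of origin.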
row,Sequence,polyreactivity (PSR sort gate)
1,QVQLVESGGGLVQAGGSLRLSCAASGRTCAAYAMGWYRQAPGKERELVAAISIGGSTNYADSVKGRFTISRDNAKNTVYLQLNSLKPEDTAVYYCAAGTWAVSKYLEWLEFYYWGQGTQVTVSS,high polyreactivity
2,QVQLVESGGGLVQAGGSLRLSCAASGRTCIDKAMGWYRQAPGKERELVAAITKGARTYYADSVKGRFTISRDNAKNTVYLQMISLKPEDTGVYYCASVSYTQSHAYWGTGYRYGYWGQGTQVTVSS,high polyreactivity
3,QVQLVESGGGLVQAGGSLRLSCAASGRTCVGNAMGWYRQAPGKERELVAAIRRGGDSTYYADSVKGRFTISRDNAKNTVYLQMNSLKPEDTAVSYCNAVSLQPYRGGFDYWGQGTQVTVSS,low polyreactivity
4,QVQLVESGGGLVQAGGSLRLSCAASGRTCWDYAMGWYRPAPGKERELVAAITWGGGSTYYADSVKGRFTISRDNAKNTVYLQMNSLKPEDTAVYYCAADTKGWGQGTQVTVSS,low polyreactivity
5,QVQLVESGGGLVQAGGSLRLSCAASGRTCYDNTMGWSRQAPGTEREFVADITGSGGSTHYADSVKGRFTISRDNAKNTVYLQLNSLKPEDTAVYYCAADYRYNRGITSNKDYDYWGQGTQVTVSS,low polyreactivity
6,QVQLVESGGGLVQAGGSLRLSCAASGRTCYNTMGWYRQSPGKERELVAAISRGGITNYADSVKGRFTISRDNAKNTVYLQMNSLKPADTAVYYCIAEPKRYYYYYKFDYWGQGTQVTVSS,high polyreactivity
7,QVQLVESGGGLVQAGGSLRLSCAASGRTFADYGMGWYRQAPGKERELVAAITSSGGSTYYADSVKGRFTISRDNAKNTVYLQMNSLKPEDTAVYYCAAQQSPSVDYWGQGTQVTVTS,low polyreactivity
8,QVQLVESGGGLVQAGGSLRLSCAASGRTFAFYTMGWYRQAPGKERELVAAITRTGSTSYADSVKGRFTISRDNAKNTVYLQMNSLKPEDTAVYYCATVGYPYTLWHQMDYWGQGTQVTVSS,low polyreactivity
9,QVQLVESGGGLVQAGGSLRLSCAASGRTFAGNAMGWYRQAPGKEREFVASITASGVNTYYADSVKGRFTISRDNAKNTVYLQMNSLKPEDTAVYYCNKRNRWTPFYTYEYWGQGTQVTVSS,low polyreactivity
10,QVQLVESGGGLVQAGGSLRLSCAASGRTFAGYAMGWYRHAPGKETELVAAITTSGGRTYYADSVKGRFTISRDYAKNTVYLQMNSLKPEDTAVYYCNVASKGRYARYAAEYGYWGQGTQVTVSS,high polyreactivity
11,QVQLVESGGGLVQAGGSLRLSCAASGRTFAINAMGGYRQAPGKERELVATIDRSGGSTYYADSVKGRFTISRDNAKNTVYLQMNRLKPEDTAVYYCAADYPVRSYDYWGQGTQVTVSS,low polyreactivity
12,QVQLVESGGGLVQAGGSLRLSCAASGRTFAINAMGWYRQAPGKERELVADITTDGSTYYADSVKGRFTISRDNAKNTVYLQMNSLKPEDTAVYYCATDSLDYFIRFKQFGYWGQGTQVTVSS,low polyreactivity
13,QVQLVESGGGLVQAGGSLRLSCAASGRTFAIYAMGWYRQAPGIEREFVAAISWSGGDTYYADSVKGRFTISRDNAKNTVYLQMNSLKPEDTAVYYCAARDNDYEGRDLQYELDYWGQGTHVTVSS,low polyreactivity
14,QVQLVESGGGLVQAGGSLRLSCAASGRTFAIYAMGWYRQAPGKEREFVAAISWSGCSTYADSVKGRFTISRDNAKNTVYLQMNSLKPEDTAVYYCAKTILYDCDYWGQGTQVTVSS,low polyreactivity
15,QVQLVESGGGLVQAGGSLRLSCAASGRTFAIYVMGWYRHAPGKERELVAAITRVGSTYADSVKGRFTISRDNAKNTVYLQMNSLKPEDTAVYYCAAVSGVRSGPWRYDYWGQGTQVTVSS,high polyreactivity
16,QVQLVESGGGLVQAGGSLRLSCAASGRTFAIYVMGWYRQAPGKEMELVAAISRGGSTYYADSVKGRFTISRDNAKNTVYLQMNSLKPEDTAVYYCAAGTGTTSRYYYWGQGTQVTVSS,high polyreactivity

row,Sequence,polyreactivity (PSR sort gate)
1,QVQLVESGGGLVQAGGSLRLSCAASGRTFAKYAMGWYRQAPGKERELVAAINSSGGSTYYADSVKGRFTISRDNAKNTVYLQMNSLKPEDTAVYYCAALGIGSYRRYSGYDYWGQGTQVTVSS,low polyreactivity
2,QVQLVESGGGLVQAGGSLRLSCAASGRTFANYAMGWYRQAPGKERELVAAISWSGGSTYYADSVKGRFTISRDNAKNSVYLQMNSLKPEDTAVYYCAALAGRAYGYGYWGQGTQVTVSS,high polyreactivity
3,QVQLVESGGGLVQAGGSLRLSCAASGRTFANYAMGWYTQAPGKERELVAAITSGGRTYYAVSVKGRFTISRDNAKNTVYLQMNSLKPEDTAVYYCAATRYRVYAQNYDYWGQGTQVTVSS,high polyreactivity
4,QVQLVESGGGLVQAGGSLRLSCAASGRTFAQNAMGWYRQAPGKERELVAAITASGSITYYADSVKGRFTISRDNAKNTVYLQMNSLKPEDTAVSYCAARGRYHFFSKYDYWGQGTQVTVSS,high polyreactivity
5,QVQLVESGGGLVQAGGSLRLSCAASGRTFARYAMGWYRPAPGKERELVASITRTGGSTYYADSVKGRFTISRDNAKNTVYFQLNSLKPEDTAVYDCATQSWKVRSKMDYWGQGTQVTVSS,high polyreactivity
6,QVQLVESGGGLVQAGGSLRLSCAASGRTFARYARGWYRPAPGKERELVAAISSSGGSTYYADSVKGRFTISRDNAKNTVYLQMNSLKPEDTSVYYCVTYRNWWYDYWGQGTQVTVSS,high polyreactivity
7,QVQLVESGGGLVQAGGSLRLSCAASGRTFASNAMGWSRQAPGKERELVAAITRGGSTNYADSVKGRFTISRDNAKNTVYLQMNSLKPEDTAVYYCAARLSSGFRSYYYWGQGTQVTVSS,high polyreactivity
8,QVQLVESGGGLVQAGGSLRLSCAASGRTFASNDMGWYRQAPGKERELVADINNGARTYYADSVKGRFTISRDNAKNTVYLQMNSLKPEDTAVYYCNTRSGFYLGDFDYWGQGTQVTVSS,high polyreactivity
9,QVQLVESGGGLVQAGGSLRLSCAASGRTFASYAMGWYRQAPGKERELVAGITSGGNTYYADSVKGRFTISRDNAKNTVYLQMNSLKPEDTAVYYCAADRVYLGLFRYEYWGQGTQVTVSS,high polyreactivity
10,QVQLVESGGGLVQAGGSLRLSCAASGRTFASYDMGWYRQAPGKEREVVAVIRSGGSTKYADSVKGRFTISRDNAKNTVYLQMNSLKPEDTAVYYCARTYAKTYLSVYLFYYWGQGTQVTVSS,low polyreactivity
11,QVQLVESGGGLVQAGGSLRLSCAASGRTFATNAMGWYRQAPGKERELVADISGGGSTYYADSVKGRFTISRDNAKNTVYLQMNSLKPEDTAVYYCAARDYHWFQWYDYWGQGTQVTVSS,low polyreactivity
12,QVQLVESGGGLVQAGGSLRLSCAASGRTFATNAMGWYSQAPGKERELVAGINGSGSTNYADSVKGRFTISRDNAKNTVYLQMNSLKPEDTAVYYCAAYVGLYYRLHYYYWGQGTQVTVSS,low polyreactivity
13,QVQLVESGGGLVQAGGSLRLSCAASGRTFATNARGWYRQAPGKERELVAGINGSGSTNYADSVKGRFTISRDNAKNTVYLQMNSLKPEDTAVYYCAAYVGLYYRLHYYYWGQGTQVTVSS,low polyreactivity
14,QVQLVESGGGLVQAGGSLRLSCAASGRTFAVYAMGWYRQAPGKERELVAAITLGASRTYYADSVKGRFTISRDNAKNTVYLQMNSLKPEDTAVYYCNAVGRRNVDSSLNDYWGQGTQVTVSS,low polyreactivity
15,QVQLVESGGGLVQAGGSLRLSCAASGRTFAWNAMGWYRQAPRKERELVARIRSSGSTYYADSVKGRFTISRDNAKNTVYLQMNSLKPVDTAVYFCAADIRFWYGYYYWGQGTQVTVSS,high polyreactivity
16,QVQLVESGGGLVQAGGSLRLSCAASGRTFAWYAMGRYRQAHGKERELVAVIRRGSGDTYYADSVKARFTISRDNAKNTVYLQMNSLKTEDTAVYYCAAEGRFSFYGGGRTKYSRYDYWGQGTQVTVSS,high polyreactivity
